Here are results for 16 substances from article PMC3349339 (Journal of Molecular Biology, 2012).

In one experiment the target is HLA-DR1 with a His→Asn substitution at position β81 (human). The experiment is described as follows: fluorescence polarisation.
The substance “fluorescein-labelled HA peptide P1,9 LS (from UniProt P03437 322-334)” gave a t1/2 of 5.93 h.

Substance “fluorescein-labelled HA peptide P9 A (from UniProt P03437 322-334)” came in with a t1/2 of 43.6 h.

Substance “fluorescein-labelled HA peptide P1,9 VS (from UniProt P03437 322-334)” returned a t1/2 of 1.65 h. As for “fluorescein-labelled HA peptide P1 V (from UniProt P03437 322-334)”, the t1/2 was 47.9 h. For the substance “fluorescein-labelled HA peptide P1,9 LA (from UniProt P03437 322-334)”, the t1/2 came to 34 h.

Substance “fluorescein-labelled HA peptide P1,9 VA (from UniProt P03437 322-334)” had a t1/2 of 14.4 h. The substance “fluorescein-labelled HA peptide P1 L (from UniProt P03437 322-334)” gave a t1/2 of 55.6 h. Consider “fluorescein-labelled HA peptide P9 S (from UniProt P03437 322-334)”, for which the t1/2 is 19.3 h.

The target is the same in another experiment.
Assay: not given
On to “HA peptide P1,9 LA (from UniProt P03437 322-334)”, for which the Kd amounted to 0.206 µM.

“HA peptide P9 S (from UniProt P03437 322-334)” gave a Kd of 0.13 µM.

With “HA peptide P1 V (from UniProt P03437 322-334)”, the Kd worked out at 0.0894 µM. This Kd and that of the substance before are within 1.5-fold of each other. Substance “HA peptide P1,9 VS (from UniProt P03437 322-334)” displayed a dissociation constant Kd of 8.17 µM. Still for that read-out and setting: as for “HA peptide P1,9 VA (from UniProt P03437 322-334)”, the figure is 0.739 µM; as for “HA peptide P9 A (from UniProt P03437 322-334)”, 0.126 µM. With “HA peptide P1,9 LS (from UniProt P03437 322-334)”, the Kd is 1.88 µM. Against the preceding substance, the Kd is about 15-fold higher. The substance “HA peptide P1 L (from UniProt P03437 322-334)” yielded a Kd of 0.0679 µM.
